Several values for one entry are separate records, joined by “and”; a condition that tells them apart may be missing. Identical values can stand only once.

This assay concerns the target Ostreolysin A6 (Pleurotus ostreatus). Briefly: high-speed atomic force microscopy; OlyA6 added (final around 0.35 uM, 5.8 ug/ml) to a d17:1/12:0-CPE/Chol (1:1) supported lipid bilayer on mica, PBS 10 mM pH 7.5, room temperature; self-assembly on the membrane.

On to Ostreolysin A6 (natural protein), for which the stoichiometry N – broadly, a count of units in the complex or per binding partner – was 6 and 2.

These data come from PMC10366546.
